Source: patent US20090035322A1 (Regeneron, published 2009)
Residue numbers refer to the chain shown, from its start.

T1: human CD20 (human, UniProt P11836 1-297)
T1 sequence: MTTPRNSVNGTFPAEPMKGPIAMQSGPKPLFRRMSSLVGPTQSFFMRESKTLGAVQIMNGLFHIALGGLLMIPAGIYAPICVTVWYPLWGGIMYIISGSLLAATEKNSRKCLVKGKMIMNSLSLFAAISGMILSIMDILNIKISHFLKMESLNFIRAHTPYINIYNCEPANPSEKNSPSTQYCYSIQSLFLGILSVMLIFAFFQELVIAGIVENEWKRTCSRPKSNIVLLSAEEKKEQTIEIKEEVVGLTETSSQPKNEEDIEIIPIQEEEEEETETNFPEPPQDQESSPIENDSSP

T2: mutant human CD20 #1 (Y77F) (human, UniProt P11836 1-297)
T2 construct: Human residues replaced by mouse residues; stably expressed on MG87 cells
T2 sequence: T1 sequence with Y77F

T3: mutant human CD20 #2 (N163D) (human, UniProt P11836 1-297)
T3 construct: Stably expressed on MG87 cells
T3 sequence: T1 sequence with N163D

T4: mutant human CD20 #3 (A170S, P172S) (human, UniProt P11836 1-297)
T4 construct: Stably expressed on MG87 cells
T4 chain: T1 sequence with A170S, P172S

T5: mutant human CD20 #4 (N166D) (human, UniProt P11836 1-297)
T5 construct: Stably expressed on MG87 cells
T5 sequence: T1 sequence with N166D

T6: mutant human CD20 #6 (Y77F, N166D) (human, UniProt P11836 1-297)
T6 construct: Stably expressed on MG87 cells
T6 chain: T1 sequence with Y77F, N166D

T7: mutant human CD20 #8 (Y77F, N163D, N166D) (human, UniProt P11836 1-297)
T7 construct: Stably expressed on MG87 cells
T7 chain: T1 sequence with Y77F, N163D, N166D

B1: 10F2-13 (antibody, V domains shown)
VH: EEQLVESGGDLVQPGRSLRLSCAASGFTFHDYTMHWVRQAPGKGLEWVSGISWNSGSLGYADSVKGRFTISRDNAKKSLYLQMNSLRAEDTALYYCAKDPSYGSGSYHSYYGMDVWGQGTTVTVSS
VL: EIVLTQSPATLSLSPGERATLSCWASQSISRYLVWYQQKCGQAPRLLIYEASKRATGIPVRFSGSGSGTDFTLTISSLESEDFAVYYCQQRFNWPLTFGGGTKVEIK
notes: Fully human IgG, constant region not specified; also called 10F2-13N; ab 10F2-13
B2: 3B9-10 (antibody, V domains shown)
VH: EVQLVESGGGLVQPGRSLRLSCVASGFTFNDYAMHWVRQAPGKGLEWVSVISWNSDSIGYADSVKGRFTISRDNAKNSLYLQMHSLRAEDTALYYCAKDNHYGSGSYYYYQYGMDVWGQGTTVTVSS
VL: EIVMTQSPATLSVSPGERATLSCRASQSVSSNLAWYQQKPGQAPRLLIYGTSTRATGIPARFSGSGSGTEFTLTISSLQSEDFAVYYCQQYNNWPLTFGGGTKVEIK
notes: Fully human IgG, constant region not specified; also called 3B9-10N
B3: 6F6-1 (antibody, V domains shown)
VH: AVQLVESGGGLVQPGRSLRLSCAASGFTFRDYAMHWVRQGPGKGLEWVSGISWNTDYIGYADSVKGRFTISRDNAKNSLYLQMNSLRPEDTALYYCAKDARYGRDNYYGMDVWGQGTTVTVSS
VL: B2 VL with S31H, T51A, S52Y, A60D, S65T, Y86F
notes: Fully human IgG, constant region not specified; also called 6F6-1N
B4: 9C3-8 (antibody, V domains shown)
VH: B2 VH with V23A, T28S, N30H, V50G, I58L, H84N, Y107H, Q111K
VL: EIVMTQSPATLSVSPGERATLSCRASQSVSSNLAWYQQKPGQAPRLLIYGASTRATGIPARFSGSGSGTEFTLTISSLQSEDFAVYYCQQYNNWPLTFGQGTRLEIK
notes: Fully human IgG, constant region not specified; also called 9C3-8N
B5: 9E4-20 (antibody, V domains shown)
VH: B3 VH with A1E, R30Y, G40A, T55S, P88A, D105N, Q115P
VL: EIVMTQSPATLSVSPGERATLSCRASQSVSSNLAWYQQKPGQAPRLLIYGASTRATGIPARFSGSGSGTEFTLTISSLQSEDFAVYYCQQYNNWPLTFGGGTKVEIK
notes: Fully human IgG, constant region not specified; also called 9E4-20N
B6: 8G6-5 (antibody, V domains shown)
VH: EVQLAESGGDLVQSGRSLRLSCAASGITFHDYAMHWVRQPPGKGLEWVSGISWNSDYIGYADSVKGRFTISRDNAKKSLYLQMNSLRPDDTALYYCVKDFHYGSGSNYGMDVWGQGTTVTVSP
VL: EIVMTQSPATLSMSPGERATLSCRASQSVSRNLAWYQQKVGQAPRLLISGASTRATGIPARFSGSGSGTEFTLTINSLQSEDFAVYYCQQSNDWPLTFGQGTRLEIK
notes: Fully human IgG, constant region not specified; also called 8G6-5N
B7: 7E1-13 (antibody, V domains shown)
VH: EVQLVESGGGLVQPGRSLRLSCTASGFTFGDFPMHWVRQAPGKGLEWVSGITWNSGSIVYADSVKGRFTISRDNAKNSLYLQMNSLRTEDTALYYCAKDSHYGSGNFYYYYYGMDVWGQGTTVTVSS
VL: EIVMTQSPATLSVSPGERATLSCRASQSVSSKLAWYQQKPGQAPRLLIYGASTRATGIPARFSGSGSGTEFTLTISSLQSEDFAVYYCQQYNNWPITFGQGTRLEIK
notes: Fully human IgG, constant region not specified; also called 7E1-13N

molecular target: T1, human CD20; assay: cell-based or functional assay

| Binder | ADCC EC50 (pM), Daudi + PBMC [pM] |
| --- | --- |
| B1 | 6.68 |
| B2 | 6.77 |
| B3 | 5.15 |
| B4 | 11 |
| B5 | 2.37 |
| B6 | 14.8 |
| B7 | 2.14 |

molecular target: T1, human CD20; assay: flow cytometry, hCD20-transfected MG87 cells
Experimental: Briefly, parental MG87 and human CD20-transfected MG87 cells were incubated for 30 min at 4° C. with each of the 15 human antibodies and the two control antibodies, followed by incubation with PE-conjugated anti-human IgG antibody. Binding was assessed by flow cytometry. Fluorescence intensities were compared with binding to the parental cell line and control isotype-matched sample.

| Binder | Total Mean Fluorescent Intensity |
| --- | --- |
| B1 | 3400 |
| B2 | 2990 |
| B3 | 3390 |
| B4 | 2910 |
| B5 | 2910 |
| B6 | 3410 |
| B7 | 3080 |

molecular target: T2, mutant human CD20 #1 (Y77F); assay: FACS, mutant-hCD20 MG87 cells; 100%=best antibody
Experimental: (§1) Briefly, approximately 1×10⁶ cells from each stably transfected cell line expressing a mutant human CD20 were collected and incubated with each anti-human antibody, at 10 μg/ml, on ice for 1 hr, followed by incubation with APC-conjugated goat anti-human IgG (Jackson Immunolabs), at 10 μg/ml, on ice for 45 min. For each antibody, binding to each mutant human CD20 was assessed by flow cytometry.

| Binder | Percent of Binding to Mutant Human CD20 [%] |
| --- | --- |
| B1 | 79 |
| B2 | 56 |
| B3 | 100 |
| B4 | 36 |
| B5 | 14 |
| B6 | 86 |
| B7 | 94 |

molecular target: T3, mutant human CD20 #2 (N163D); assay: FACS, mutant-hCD20 MG87 cells; 100%=best antibody
Experimental: as §1

| Binder | Percent of Binding to Mutant Human CD20 [%] |
| --- | --- |
| B1 | 54 |
| B2 | 6 |
| B3 | 74 |
| B4 | 0 |
| B5 | 0 |
| B6 | 45 |
| B7 | 49 |

Molecular target: T4, mutant human CD20 #3 (A170S, P172S)
Assay: FACS, mutant-hCD20 MG87 cells; 100%=best antibody
Experimental: as §1

| Binder | Percent of Binding to Mutant Human CD20 [%] |
| --- | --- |
| B1 | 55 |
| B2 | 67 |
| B3 | 100 |
| B4 | 84 |
| B5 | 57 |
| B6 | 65 |
| B7 | 95 |

molecular target: T5, mutant human CD20 #4 (N166D); assay: FACS, mutant-hCD20 MG87 cells; 100%=best antibody
Experimental: as §1

| Binder | Percent of Binding to Mutant Human CD20 [%] |
| --- | --- |
| B1 | 60 |
| B2 | 40 |
| B3 | 85 |
| B4 | 22 |
| B5 | 8 |
| B6 | 70 |
| B7 | 84 |

Molecular target: T6, mutant human CD20 #6 (Y77F, N166D)
Assay: FACS, mutant-hCD20 MG87 cells; 100%=best antibody
Experimental: as §1

| Binder | Percent of Binding to Mutant Human CD20 [%] |
| --- | --- |
| B1 | 1 |
| B2 | 1 |
| B3 | 16 |
| B4 | 0 |
| B5 | 1 |
| B6 | 5 |
| B7 | 1 |

Molecular target: T7, mutant human CD20 #8 (Y77F, N163D, …)
Assay: FACS, mutant-hCD20 MG87 cells; 100%=best antibody
Experimental: as §1

| Binder | Percent of Binding to Mutant Human CD20 [%] |
| --- | --- |
| B1 | 0 |
| B2 | 0 |
| B3 | 0 |
| B4 | 0 |
| B5 | 0 |
| B6 | 0 |
| B7 | 0 |
